Positions count from the first letter of the chain named. Where two headings read alike, the source gives them in different places.

In experiment [1] the target is human FIX and human FX mixed 1:1 (10 µM 10 µM). Kind of experiment: SPR, bispecific captured on anti-human IgG Fc, second injection of a 1:1 mixture of FIX and FX. A general note: In SPR one partner is held on a chip, and binding of the other changes the refractive index at the surface.
Experiment [2] concerns the target T1, human factor X (human, UniProt P00742 41-179; P00742 183-488).
T1 construct: Zymogen used as analyte in SPR; also called FX; Human FX (MW ~58 KDa)
Kind of experiment: SPR, bispecific captured on anti-human IgG Fc, FIX then FX injected. As to the method:
(§1) The binding kinetics of the purified bispecific antibody was compared to an isotype control (ISTC). […] FIG. 21A.
(§2) Bispecific antibody (ligand), which had been purified by Protein A capture followed by ion exchange chromatography, was captured on to the anti-human IgG Fc CM4 surface at approximately 2 μg/ml. The ligand was injected at 10 μg/ml for 60 seconds at 10 μl/min in one active channel. The run was performed at 25° C. using neutral pH HBS-P 1×+CaCl₂ 2.5 mM as running buffer.

The target in experiment [3] is T2, human factor IX (human, UniProt P00740 47-461, 12 glutamic acid residues of the GLA domain are post-translationally γ-carboxylated).
T2 construct: Zymogen used as analyte in SPR, reconstituted at 1 mg/ml; also called FIX; Human FIX (MW ~55 KDa)
T2 sequence (P00740 47-461 limits assumed): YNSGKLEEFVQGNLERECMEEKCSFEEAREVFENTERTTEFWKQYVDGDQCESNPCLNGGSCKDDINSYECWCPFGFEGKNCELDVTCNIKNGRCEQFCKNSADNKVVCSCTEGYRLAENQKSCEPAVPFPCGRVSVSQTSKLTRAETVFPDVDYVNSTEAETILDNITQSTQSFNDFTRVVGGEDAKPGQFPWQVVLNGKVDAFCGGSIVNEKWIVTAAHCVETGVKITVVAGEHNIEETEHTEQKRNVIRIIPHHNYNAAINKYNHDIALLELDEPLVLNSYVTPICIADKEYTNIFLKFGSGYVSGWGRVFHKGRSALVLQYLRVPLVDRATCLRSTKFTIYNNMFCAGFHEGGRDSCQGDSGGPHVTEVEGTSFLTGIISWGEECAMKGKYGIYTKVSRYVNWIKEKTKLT
Kind of experiment: SPR (Biacore 8K), antibody captured on anti-human IgG Fc CM4 chip, human FIX injected alone as analyte (10 µM, 180 s per Example 11) [i), B(i]. As for the experimental part: as §1, §2

The target in experiment [4] is T1, human factor X. Kind of experiment: cell-based or functional assay.
The target in experiment [5] is T2, human factor IX. The experiment is described as follows: SPR, IgG captured on anti-human IgG Fc, human FIX as analyte. As for the experimental part:
(§3) SPR was used to determine the binding affinity (KD) to FIX or FX respectively, the kinetic constants on-rate (kₒₙ) and off-rate (koff). Analyses was performed using a Biacore 8K (GE Healthcare) system.
(§4) Monospecific antibodies (referred as ligand) which had been purified on Protein A were captured onto the anti-human IgG Fc CM4 surface at approximately 2 μg/ml. The ligands were injected for 60 seconds at 10 μl/min in all the active channels of all 8 flow channels. The run was performed at 25° C. using neutral pH HBS-P 1X+CaCl₂ 2.5 mM as running buffer.
(§5) Human FIX (MW ˜55 KDa) or human FX (MW ˜58 KDa) was reconstituted at 1 mg/ml in the running buffer and used as analyte. The analyte was injected in multiple cycle kinetics (MCK) mode at 3 concentrations (1.5 μM, 500 nM and 166.7 nM) with 120 seconds association phase and 200 seconds (for FIX) or 300 seconds (for FX) dissociation phase, at flow rate […] in both active and reference channels. Three injections of 10 mM Glycine pH 1.5 for 60 sec. at 10 μl/min were used for the regeneration phase.

Experiment [6] deals with T2, human factor IX. The experiment is described as above. This is another data set of the same source.
Experiment [7] concerns the target T1, human factor X. Kind of experiment: SPR, IgG captured on anti-human IgG Fc, human FX as analyte. As for the experimental part: as §3, §4, §5
For experiment [8], the target named is T1, human factor X. Described as above. This is another data set of the same source.
In experiment [9] the target is T1, human factor X. The experiment is described as follows: SPR as in Example 10, human FX as analyte.
The target in experiment [10] is T1, human factor X. The experiment is described as follows: SPR as in Example 10, human FX as analyte. As for the experimental part: as §4, §5
Affinity and kinetics of purified anti-FIX and anti-FX antibodies for binding to their respective antigens was determined by SPR as described in Example 10 above.
This is another data set of the same source.

T1 sequence (P00742 41-179, chain 1 of 2): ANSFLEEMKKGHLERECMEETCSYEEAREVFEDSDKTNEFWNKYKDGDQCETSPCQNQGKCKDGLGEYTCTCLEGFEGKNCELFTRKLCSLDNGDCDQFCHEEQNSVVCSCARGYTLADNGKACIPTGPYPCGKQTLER
T1 sequence (P00742 183-488, chain 2 of 2): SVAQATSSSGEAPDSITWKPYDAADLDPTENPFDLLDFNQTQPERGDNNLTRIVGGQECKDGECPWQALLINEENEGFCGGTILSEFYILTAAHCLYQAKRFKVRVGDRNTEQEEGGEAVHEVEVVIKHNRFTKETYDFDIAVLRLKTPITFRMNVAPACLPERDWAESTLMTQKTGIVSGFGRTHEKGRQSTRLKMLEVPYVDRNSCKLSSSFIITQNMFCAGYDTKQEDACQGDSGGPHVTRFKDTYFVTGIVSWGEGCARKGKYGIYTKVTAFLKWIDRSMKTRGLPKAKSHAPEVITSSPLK

B1: FIXxFX bispecific antibody IXAX-0436.0202.0128 (bispecific antibody, human IgG4 S228P, lambda)
heavy 1: EVQLVESGGGFVQPGGSLRLSCAVSGFTFNSYWMSWVRQAPGKGLEWVANINQDGSEKFYVASVKGRFTMSRDNAKKSVYVQMNSLRAEDTAVYYCAREGYSSISYYGMDVWGQGTTVTVSSASTKGPSVFPLAPCSRSTSESTAALGCLVKDYFPEPVTVSWNSGALTSGVHTFPAVLQSSGLYSLSSVVTVPSSSLGTQTYTCNVDHKPSNTKVDKRVESKYGPPCPPCPAPEFLGGPSVFLFPPKPKDTLMISRTPEVTCVVVDVSQEDPEVQFNWYVDGVEVHNAKTKPREEQYNSTYRVVSVLTVLHQDWLNGKEYKCKVSNKGLPSSIEKTISKAKGQPREPQVYTLPPSQEEMTKNQVSLTCLVKGFYPSDIAVEWESNGQPENNYKTTPPVLDSDGSFFLYSKLTVDKSRWQEGNVFSCSVMHEALHNHYTQESLSLSP
heavy 2: QVQLIQSGAEVQKPGASVKVSCKASRYSFTSYYMHWVRQAPGQGLEWMGIINPKSGSTSYAQKFQGRVTMTRDTSTSTVYMELSSLRSEDTAVYYCARDGYGSSSRCLQLWGQGTLVTVSSASTKGPSVFPLAPCSRSTSESTAALGCLVKDYFPEPVTVSWNSGALTSGVHTFPAVLQSSGLYSLSSVVTVPSSSLGTQTYTCNVDHKPSNTKVDKRVESKYGPPCPPCPAPEFLGGPSVFLFPPKPKDTLMISRTPEVTCVVVDVSQEDPEVQFNWYVDGVEVHNAKTKPREEQYNSTYRVVSVLTVLHQDWLNGKEYKCKVSNKGLPSSIEKTISKAKGQPREPQVYTLPPSQKEMTKNQVSLTCLVKGFYPSDIAVEWESNGQPENNYKTTPPVLDSDGSFFLYSKLTVDKSRWQEGNVFSCSVMHEALHNHYTQKSLSLSP
light: SYVLTQPPSVSVAPGETARITCGGDNIGRKSVYWYQQKSGQAPVLVIYYDSDRPSGIPERFSGSNSGNTATLTISRVEAGDEADYYCQVWDGSSDHWVFGGGTKLTVLGQPKAAPSVTLFPPSSEELQANKATLVCLISDFYPGAVTVAWKADSSPVKAGVETTTPSKQSNNKYAASSYLSLTPEQWKSHKSYSCQVTHEGSTVEKTVAPTECS
notes: also called N436 bispecific antibody
As to B1, the response above that of the anti-FX monospecific antibody (RU) in experiment [1] came out at 25 RU. In addition, the binding result with human factor X [2] and in the experiment with human factor IX [3] was “binds” throughout.

B2: IXAX-1280.0999.0325 (bispecific antibody, human IgG4 S228P, lambda)
heavy 1: B1 heavy 1 with T28R, E57R, S105K
heavy 2: B1 heavy 2 with E10K, Q12K, S28K, S104F, C107L, L108I
light: YVLTQPPSVSVAPGETARITCGGDNIGRKSVYWYQQKSGQAPVLVIYYDSDRPSGIPERFSGSNSGNTATLTISRVEAGDEADYYCQVWDGSSDHWVFGGGTKLTVLGQPKAAPSVTLFPPSSEELQANKATLVCLISDFYPGAVTVAWKADSSPVKAGVETTTPSKQSNNKYAASSYLSLTPEQWKSHKSYSCQVTHEGSTVEKTVAPTECS
For B2, the “EC50, kinetic FXase assay (FIXa-catalysed activation of FX to FXa, OD405 nm at 600 s)” value in the experiment with human factor X [4] was 3.99 nM.

B3: NINA-0438.0128 (antibody, V domains shown)
VH: EVQLVESGGGFVQPGGSLRLSCAVSGFTFNSYWMSWVRQAPGKGLEWVANINQDGSEKFYVASVKGRFTMSRDNAKKSVYVQMNSLRAEDTAVYYCAREGYSSLSYYGMDVWGQGTTVTVSS
VL: SYVLTQPPSVSVAPGETARITCGGDNIGRKSVYWYQQKSGQAPVLVIYYDSDRPSGIPERFSGSNSGNTATLTISRVEAGDEADYYCQVWDGSSDHWVFGGGTKLTVL
As to B3, in the experiment with human factor IX [5], the Kd (as a rule, the equilibrium constant for the complex coming apart) worked out at 293 nM; the koff – broadly, the first-order rate constant of dissociation – came out at 0.0673 s⁻¹; the kon (as a rule, the rate constant with which the complex forms) was found to be 230000 M⁻¹ s⁻¹. This molecule gave a Kd with human factor IX [6] of 300 nM.

B4: TINA-0205.0128 (antibody, V domains shown)
VH: QVQLVQSGAEVKKPGASVKVSCKASRYSFTSYYMHWVRQAPGQGLEWMGIINPKSGDTSYAQKFQGRVTMTRDTSTSTVYMELNSLRSEDTAVYYCARDGYGSSARCLQLWGQGTLVTVSS
VL: B3 VL
notes: Monospecific IgG4PE
In the experiment with human factor X [7], B4 had a Kd of 1360 nM, a koff of 0.0853 s⁻¹ and a kon of 62600 M⁻¹ s⁻¹. This molecule came in with a Kd with human factor X [8] of 100 nM.

B5: TINA-0213.0128 (antibody, V domains shown)
VH: B4 VH with P14T, D57T, N84S, A105S
VL: B3 VL
notes: Monospecific IgG4PE
For B5, in the experiment with human factor X [7], binding was put at a Kd of 1370 nM, the koff is 0.133 s⁻¹ and the kon was 96900 M⁻¹ s⁻¹. Also, the Kd with human factor X [8] came to 1400 nM.

B6: NINA-0460.0128 (antibody, V domains shown)
VH: B3 VH with L104S, S105Q
VL: B3 VL
Consider B6, for which, in the experiment with human factor IX [5], the Kd is 181 nM, the koff turned out to be 0.0318 s⁻¹ and the kon was found to be 175000 M⁻¹ s⁻¹. Besides, the affinity with human factor IX [6], expressed as Kd, was 180 nM.

B7: TINA-0200.0128 (antibody, V domains shown)
VH: B4 VH with M34L, S55T, S77T, N84S
VL: B3 VL
notes: Monospecific IgG4PE
B7 yielded a dissociation constant (Kd) with human factor X [9] of 300 to 3000 nM. In the experiment with human factor X [7], the Kd was 1130 nM, the koff was found to be 0.115 s⁻¹ and the kon stood at 103000 M⁻¹ s⁻¹. Moreover, in the experiment with human factor X [10], the affinity, expressed as Kd, was 2520 nM; the koff is 0.112 s⁻¹; the kon worked out at 44300 M⁻¹ s⁻¹.

The values are drawn from patent US20220064327A1 (KYMAB, published 2022).
